Columns and labels:
[1] = target: T1, CD66c (Cluster of Differentiation 66c) on cells (UniProt P40199 35-320, limits assumed); assay: flow cytometry on CD66c-positive A549 cells, FITC anti-human IgG
T1 construct: whole, on cells; also called CEACAM6; CEACAM 6
T1 sequence (looked up): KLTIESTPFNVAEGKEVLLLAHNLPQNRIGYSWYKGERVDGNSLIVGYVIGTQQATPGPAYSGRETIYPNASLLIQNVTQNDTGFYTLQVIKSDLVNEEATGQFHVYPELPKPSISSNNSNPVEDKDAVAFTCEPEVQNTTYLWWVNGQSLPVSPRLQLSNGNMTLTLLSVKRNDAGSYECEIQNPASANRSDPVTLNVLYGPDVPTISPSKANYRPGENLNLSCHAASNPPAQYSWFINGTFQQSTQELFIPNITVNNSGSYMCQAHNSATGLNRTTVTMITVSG
Description: Each expressed 96 recombinant humanized antibody was poured and reacted in a test tube containing the same amount […] of CD66c-positive A549 non-small-cell lung cancer cell line at 4° C. for 30 minutes, washed with PBS, and treated with FITC-conjugated goat anti-Huma IgG (DiNona Inc, Korea) was added and incubated at 4° C. for 15 minutes. After washing with PBS, the cells were analyzed with a flow cytometer (Stratedigm, S1000EXi) and the results are shown below.
Among the 96 recombinant humanized antibody candidates, eight were firstly selected based on the degree of expression, the presence of aggregation, and the degree of cell binding (Table 9 and Table 10, FIGS. 3A to 3E).

[2] = target: T2, Antigen CD66c (CEACAM6; Sino Biological, Inc.) (UniProt P40199 35-320); assay: ELISA, CEACAM6 coated 100 ng/well, antibody at 123.46 ng/ml
T2 construct: Bought antigen, coated on the ELISA plate; construct not described; also called CECACAM6 (CD66c) antigen; CD66c antigen
T2 sequence (looked up): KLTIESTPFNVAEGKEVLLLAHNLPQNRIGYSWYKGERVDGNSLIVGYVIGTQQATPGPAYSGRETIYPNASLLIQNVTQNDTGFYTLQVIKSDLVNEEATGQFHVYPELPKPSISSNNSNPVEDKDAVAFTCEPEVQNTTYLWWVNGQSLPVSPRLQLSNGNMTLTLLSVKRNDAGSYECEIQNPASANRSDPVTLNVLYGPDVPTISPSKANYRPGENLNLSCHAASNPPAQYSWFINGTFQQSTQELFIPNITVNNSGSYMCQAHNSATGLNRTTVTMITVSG
Description: (§1) Antigen CD66c (CEACAM6; Sino Biological, Inc.) and CEACAM1 antigen (Sino Biological, Inc.) were coated on a 96-well plate at a rate of 100 ng per well and then blocked. The primary antibody was diluted 3-fold from 10 ug/ml and bound at 37° C. for 1 hour. […] goat anti-Human Ig-HRP conjugate (Jackson ImmunoResearch) as a secondary antibody was diluted 1:10,000 and incubated at 37° C. for 30 minutes. The washing was carried out at three times between each step, and the TMB reaction was performed, stopped with 1N H₂SO₄ solution at the same amount of TMB solution (100 ul) and then OD value was measured at 450 nm.
(§2) As a result of the experiment, the binding affinities to CD66c antigen of the five kinds of recombinant humanized antibodies selected from among 96 kinds of recombinant humanized antibodies are shown in FIG. 4a, Table 12, FIG. 4b and Table 13. FIG. 4a and Table 12 show the binding capacity of the antibodies to CECACAM6 CD66c) antigen, and FIG. 4b and Table 13 are the results for the CEACAM1 (CD66a) antigen.

[3] = target: T2, Antigen CD66c (CEACAM6; Sino …); assay: ELISA, CEACAM6 coated 100 ng/well, antibody at 0.17 ng/ml
Description: as §1, §2

[4] = target: T2, Antigen CD66c (CEACAM6; Sino …); assay: ELISA, CEACAM6 coated 100 ng/well, antibody at 0.51 ng/ml
Description: as §1, §2

[5] = target: T2, Antigen CD66c (CEACAM6; Sino …); assay: ELISA, CEACAM6 coated 100 ng/well, antibody at 1.52 ng/ml
Description: as §1, §2

[6] = target: T2, Antigen CD66c (CEACAM6; Sino …); assay: ELISA, CEACAM6 coated 100 ng/well, antibody at 4.57 ng/ml
Description: as §1, §2

[7] = target: T2, Antigen CD66c (CEACAM6; Sino …); assay: ELISA, CEACAM6 coated 100 ng/well, antibody at 3333.33 ng/ml
Description: as §1, §2

[8] = target: T2, Antigen CD66c (CEACAM6; Sino …); assay: ELISA, CEACAM6 coated 100 ng/well, antibody at 1111.11 ng/ml
Description: as §1, §2

[9] = target: T2, Antigen CD66c (CEACAM6; Sino …); assay: ELISA, CEACAM6 coated 100 ng/well, antibody at 41.15 ng/ml
Description: as §1

[10] = target: T2, Antigen CD66c (CEACAM6; Sino …); assay: ELISA, CEACAM6 coated 100 ng/well, antibody at 10000.00 ng/ml
Description: as §1, §2

[11] = target: T2, Antigen CD66c (CEACAM6; Sino …); assay: ELISA, CEACAM6 coated 100 ng/well, antibody at 370.37 ng/ml
Description: as §1, §2

[12] = target: T2, Antigen CD66c (CEACAM6; Sino …); assay: ELISA, CEACAM6 coated 100 ng/well, antibody at 13.72 ng/ml
Description: as §1, §2

| Binder | % (% gated × mean), against the chimeric antibody [1] | % gated [1] | Mean (fluorescence) [1] | OD 450 nm [2] | OD 450 nm [3] | OD 450 nm [4] | OD 450 nm [5] | OD 450 nm [6] | OD 450 nm [7] | OD 450 nm [8] | OD 450 nm [9] | OD 450 nm [10] | OD 450 nm [11] | OD 450 nm [12] |
| --- | --- | --- | --- | --- | --- | --- | --- | --- | --- | --- | --- | --- | --- | --- |
| recombinant humanized anti-CD66c antibody Protein ID 3004 (Vk7 + VH5) (antibody, human IgG1, V domains shown, also called #41) VH: QVQLVQSGAEVKKPGASVKISCKASGYSFTDYTMNWVRQAHGQNLEWIGLINPFHGGTVSNQRFKVKATLTVDVSTNTAYMELSRLRSDDTAVYYCVRGDPVRHYYALAYWGQGTLVTVSS VL: DIQMTQSPSTLSASVGDRVTITCGASENVYGTLNWYQRKPGKAPKLLIYGATNLADGVPSRFSGSGSGTEYTLTISSLQPDDFATYYCQNVLSAPYTFGGGTKLEIK | 85% | 71% | 541 | – | – | – | – | – | – | – | – | – | – | – |
| recombinant humanized anti-CD66c antibody Protein ID 3019 (Vk7 + VH10) (antibody, human IgG1, V domains shown, also called hu 3019; #51) VH: QVQLVQSGAEVKKPGASVKVSCKASGYSFTDYTMNWVKQAPGQNLEWIGLINPFHGGTVSNQRFKVKATMTVDVSTNTAYMELSRLRSDDTAVYYCVRGDPVRHYYALAYWGQGTLVTVSS VL: DIQMTQSPSTLSASVGDRVTITCGASENVYGTLNWYQRKPGKAPKLLIYGATNLADGVPSRFSGSGSGTEYTLTISSLQPDDFATYYCQNVLSAPYTFGGGTKLEIK | 86.9% | 70% | 561 | 3.04 OD 450 nm | 0.68 OD 450 nm | 0.8 OD 450 nm | 0.95 OD 450 nm | 1.32 OD 450 nm | 3.26 OD 450 nm | 3.34 OD 450 nm | 2.45 OD 450 nm | 3.13 OD 450 nm | 3.23 OD 450 nm | 1.77 OD 450 nm |
| recombinant humanized anti-CD66c antibody Protein ID 3046 (Vk8 + VH7) (antibody, human IgG1, V domains shown, also called #74) VH: QVQLVQSGAEVKKPGASMKISCKASGYSFTDYTMNWVRQAPGQGLEWIGLINPFHGGTVSNQRFKVKATLTVDVSTNTAYMELSRLRSDDTAVYYCVRGDPVRHYYALAYWGQGTLVTVSS VL: DIQMTQSPSTLSASVGDRVTITCRASENVYGTLNWYQRKPGKAPKLLIYGATNLADGMPSRFSGSGSGTEYTLTISSLQPDDFATYYCQNVLSAPYTFGGGTKLEIK | 82.2% | 71% | 523 | – | – | – | – | – | – | – | – | – | – | – |
| recombinant humanized anti-CD66c antibody Protein ID 3010 (Vk7 + VH7) (antibody, human IgG1, V domains shown, also called #45) VH: QVQLVQSGAEVKKPGASMKISCKASGYSFTDYTMNWVRQAPGQGLEWIGLINPFHGGTVSNQRFKVKATLTVDVSTNTAYMELSRLRSDDTAVYYCVRGDPVRHYYALAYWGQGTLVTVSS VL: DIQMTQSPSTLSASVGDRVTITCGASENVYGTLNWYQRKPGKAPKLLIYGATNLADGVPSRFSGSGSGTEYTLTISSLQPDDFATYYCQNVLSAPYTFGGGTKLEIK | 85.8% | 70% | 554 | – | – | – | – | – | – | – | – | – | – | – |
